The target of assay [1] is T1, human Claudin 18.1 Mutant 15 (Claudin 18.1/S42A/Q45N/Q56E) (human, UniProt P56856 1-261).
T1 chain: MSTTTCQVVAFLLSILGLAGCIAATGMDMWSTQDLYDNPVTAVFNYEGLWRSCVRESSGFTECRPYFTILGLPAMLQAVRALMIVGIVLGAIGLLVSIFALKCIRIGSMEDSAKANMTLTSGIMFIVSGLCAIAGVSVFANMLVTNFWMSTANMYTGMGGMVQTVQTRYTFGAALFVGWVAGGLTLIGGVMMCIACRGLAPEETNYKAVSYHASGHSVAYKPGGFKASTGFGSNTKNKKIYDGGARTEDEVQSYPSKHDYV
Put plainly: FACS on HEK293A cells expressing mutant 15.

In assay [2] the target is human Claudin 18.1 Mutant 14 (Q56E) (human, UniProt P56856 1-261). As to the kind of experiment: FACS on HEK293A cells expressing mutant 14.
Assay [3] has as its target T2, human Claudin 18.1 (human, UniProt P56856 1-261).
T2 construct: Overexpressed on HEK293A cells by lentivirus
Put plainly: FACS on HEK293A cells expressing human Claudin 18.1 WT.

The target of assay [4] is T3, human Claudin 18.1 Mutant 16 (Claudin 18.1/S42A/Q45N/E47Q/Q56E) (human, UniProt P56856 1-261).
T3 chain: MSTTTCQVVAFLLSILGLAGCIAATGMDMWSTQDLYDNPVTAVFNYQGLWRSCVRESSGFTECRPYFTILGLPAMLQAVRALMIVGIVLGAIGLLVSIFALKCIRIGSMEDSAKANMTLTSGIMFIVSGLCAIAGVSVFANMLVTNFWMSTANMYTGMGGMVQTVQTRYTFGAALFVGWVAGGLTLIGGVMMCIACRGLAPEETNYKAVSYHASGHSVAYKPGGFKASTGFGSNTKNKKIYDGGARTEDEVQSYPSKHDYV
Put plainly: FACS on HEK293A cells expressing mutant 16.

The target of assay [5] is T2, human Claudin 18.1. Put plainly: FACS on HEK293A/hClaudin 18.1 cells.
The target in assay [6] is T4, human Claudin 18.2 (human).
T4 construct: Overexpressed on HEK293A or MC38 cells by lentivirus; endogenous on KATO-III and NUGC-4 cells
Put plainly: FACS on HEK-293A cells expressing human Claudin 18.2.

This note sets out measurements from US10421817 (BEIJING MABWORKS BIOTECH, dated 2019).

T2 sequence (P56856 whole entry): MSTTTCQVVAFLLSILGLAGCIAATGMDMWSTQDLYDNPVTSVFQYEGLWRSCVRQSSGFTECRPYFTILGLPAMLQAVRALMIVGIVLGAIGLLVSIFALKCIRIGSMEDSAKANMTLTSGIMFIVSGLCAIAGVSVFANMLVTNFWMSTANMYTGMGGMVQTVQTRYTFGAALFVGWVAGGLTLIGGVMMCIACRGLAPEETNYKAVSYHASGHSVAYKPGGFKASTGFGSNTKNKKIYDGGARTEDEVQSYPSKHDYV

B1: 18F2-30VH0VL0 (antibody, human IgG1, kappa, V domains shown)
VH: QVQLVQSGAEVKKPGASVKVSCKASGYTFTSFWLNWVRQAPGQGLEWMGNIYPSTSYTVYNQKFKDRVTMTRDTSTSTVYMELSSLRSEDTAVYYCARTWRGNSFDYWGQGTTVTVSS
VL: DIVMTQSPDSLAVSLGERATINCKSSQSLLNSGNQKNYVTWYQQKPGQPPKLLIYWGSTRSTGVPDRFSGSGSGTDFTLTISSLQAEDVAVYYCQNDYTYPFTFGQGTKLEIKR
notes: Humanized, human IgG1/kappa constant regions
For the molecule B1, the binding result in assay [1] is reported as “binds”; in assay [2], “binds”; in assay [3] it was “no binding”; in assay [4] it was “binds”.

B2: 18F2-35VH0VL0 (antibody, human IgG1, kappa, V domains shown)
VH: QVQLVQSGAEVKKPGASVKVSCKASGYTFTSFWLNWVRQAPGQGLEWMGNIYPSTSYTIYNQKFKDRVTMTRDTSTSTVYMELSSLRSEDTAVYYCARTWRGNSFDYWGQGTTVTVSS
VL: DIVMTQSPDSLAVSLGERATINCKSSQSLLNSGNQKNYLTWYQQKPGQPPKLLIYWGSTRVRGVPDRFSGSGSGTDFTLTISSLQAEDVAVYYCQNDYTYPFTFGQGTKLEIKR
notes: as for B1
On to B2, for which the binding result in assay [1] is “binds”; in assay [2], “binds”; in assay [3] it was “no binding”; in assay [4], “binds”.

B3: 18F2-66VH3VL0 (antibody, human IgG1, kappa, V domains shown)
VH: QVQLVQSGAEVKKPGASVKVSCKASGYTFTSFWINWVRQAPGQGLEWIGNIYPSASYTVYNQKFKDRVTLTVDTSTSTVYMELSSLRSEDTAVYYCARTWRGNSFDLWGQGTTVTVSS
VL: DIVMTQSPDSLAVSLGERATINCKSSQSLLNSGNQKNYVTWYQQKPGQPPKLLIYWSSTRSFGVPDRFSGSGSGTDFTLTISSLQAEDVAVYYCQNDYTYPFTFGQGTKLEIKR
notes: as for B1
As to B3, the binding result in assay [5] was “no binding”.

B4: 18F2-66VH2VL0 (antibody, human IgG1, kappa, V domains shown)
VH: QVQLVQSGAEVKKPGASVKVSCKASGYTFTSFWINWVRQAPGQGLEWIGNIYPSASYTVYNQKFKDRVTLTVDKSTSTVYMELSSLRSEDTAVYYCARTWRGNSFDLWGQGTTVTVSS
VL: DIVMTQSPDSLAVSLGERATINCKSSQSLLNSGNQKNYVTWYQQKPGQPPKLLIYWSSTRSFGVPDRFSGSGSGTDFTLTISSLQAEDVAVYYCQNDYTYPFTFGQGTKLEIKR
notes: as for B1
With B4, in assay [5], the binding result is reported as “no binding”.

B5: 18F2-66VH4VL0 (antibody, human IgG1, kappa, V domains shown)
VH: QVQLVQSGAEVKKPGASVKVSCKASGYTFTSFWINWVRQRPGQGLEWIGNIYPSASYTVYNQKFKDRVTLTVDKSTSTVYMELSSLRSEDTAVYYCARTWRGNSFDLWGQGTTVTVSS
VL: DIVMTQSPDSLAVSLGERATINCKSSQSLLNSGNQKNYVTWYQQKPGQPPKLLIYWSSTRSFGVPDRFSGSGSGTDFTLTISSLQAEDVAVYYCQNDYTYPFTFGQGTKLEIKR
notes: as for B1
For B5, the binding result in assay [5] was “no binding”.

B6: 18F2-66VH5VL0 (antibody, human IgG1, kappa, V domains shown)
VH: QVQLVQSGAEVKKPGASVKVSCKASGYTFTSFWINWVRQRPGQGLEWIGNIYPSASYTVYNQKFKDRVTLTVDKSTSTAYMELSSLRSEDTAVYYCTRTWRGNSFDLWGQGTTVTVSS
VL: DIVMTQSPDSLAVSLGERATINCKSSQSLLNSGNQKNYVTWYQQKPGQPPKLLIYWSSTRSFGVPDRFSGSGSGTDFTLTISSLQAEDVAVYYCQNDYTYPFTFGQGTKLEIKR
notes: as for B1
Regarding B6, the binding result in assay [5] is listed as “no binding”.

B7: 18F2-35VH7VL0 (antibody, human IgG1, kappa, V domains shown)
VH: QVQLVQSGAEVKKPGASVKVSCKASGYTFTSFWLNWVKQRPGQGLEWIGNIYPSTSYTIYNQKFKDKVTLTVDKSTSTAYMELSSLRSEDTAVYYCTRTWRGNSFDYWGQGTTVTVSS
VL: DIVMTQSPDSLAVSLGERATINCKSSQSLLNSGNQKNYLTWYQQKPGQPPKLLIYWGSTRVRGVPDRFSGSGSGTDFTLTISSLQAEDVAVYYCQNDYTYPFTFGQGTKLEIKR
notes: as for B1
In the case of B7, the binding result in assay [5] is on record as “no binding”.

B8: 18F2-66VH6VL0 (antibody, human IgG1, kappa, V domains shown)
VH: QVQLVQSGAEVKKPGASVKVSCKASGYTFTSFWINWVRQRPGQGLEWIGNIYPSASYTVYNQKFKDRVTLTVDKSSSTAYMELSSLTSEDTAVYYCTRTWRGNSFDLWGQGTTVTVSS
VL: DIVMTQSPDSLAVSLGERATINCKSSQSLLNSGNQKNYVTWYQQKPGQPPKLLIYWSSTRSFGVPDRFSGSGSGTDFTLTISSLQAEDVAVYYCQNDYTYPFTFGQGTKLEIKR
notes: as for B1
Regarding B8, the binding result in assay [5] is reported as “no binding”.

B9: 18F2-66VH0VL0 (antibody, human IgG1, kappa, V domains shown)
VH: QVQLVQSGAEVKKPGASVKVSCKASGYTFTSFWINWVRQAPGQGLEWMGNIYPSASYTVYNQKFKDRVTMTRDTSTSTVYMELSSLRSEDTAVYYCARTWRGNSFDLWGQGTTVTVSS
VL: DIVMTQSPDSLAVSLGERATINCKSSQSLLNSGNQKNYVTWYQQKPGQPPKLLIYWSSTRSFGVPDRFSGSGSGTDFTLTISSLQAEDVAVYYCQNDYTYPFTFGQGTKLEIKR
notes: as for B1
For the molecule B9, the binding result in assay [5] is “no binding”.

B10: 18F2-5 (antibody, human IgG1, kappa, V domains shown)
VH: QVQLQQPGAELVRPGASVKLSCKASGYTFTSFWLNWVKQRPGQGLEWIGNIYPSTSYTVYNQKFKDKATLTVDKSSSTAYMQLSSPTSEDSAVYYCTRTWRGNSFDLWGQGTTLTVSS
VL: DIVMTQSPSSLTVTAGEKVTMSCKSNQSLLNSGNQKNYVTWYQQKPGQPPKLLIYWGSTRVRGVPDRFTGSGSGTDFTLTISSVQAEDLAVYYCQNDYTYPFTFGSGTKLEIKR
What is called EC50 is the concentration that produces a half-maximal response. A high value points to a need for much substance. B10 came in with a half-maximal effective concentration (EC50) in assay [6] of 0.616 nM.

B11: IMAB362 (antibody, V domains shown)
VH: QVQLQQPGAELVRPGASVKLSCKASGYTFTSYWINWVKQRPGQGLEWIGNIYPSDSYTNYNQKFKDKATLTVDKSSSTAYMQLSSPTSEDSAVYYCTRSWRGNSFDYWGQGTTLTVSS
VL: DIVMTQSPSSLTVTAGEKVTMSCKSSQSLLNSGNQKNYLTWYQQKPGQPPKLLIYWASTRESGVPDRFTGSGSGTDFTLTISSVQAEDLAVYYCQNDYSYPFTFGSGTKLEIKR
As to B11, in assay [6], the EC50 amounted to 0.634 nM. This EC50 and that of the molecule before are within 1.5-fold of each other.

B12: 18F2 (antibody, human IgG1, kappa, V domains shown)
VH: QVQLQQPGAELVRPGASVKLSCKASGYTFTSFWVNWVKQRPGQGLEWIGNIYPSTSYTVYNQKFKDKATLTVDKSSSTAYMQLSSPTSEDSAVYYCTRSWRGNSFDHWGQGTTLTVSS
VL: DIVMTQSPSSLTVTAGEKVTMSCKSSQSLLNSGNQKNYVTWYQQKPGQPPKLLIYWGSTRVRGVPDRFTGSGSGTDFTLTISSVQAEDLAVYYCQNDYTYPFTFGSGTKLEIKR
notes: Chimeric full length antibody, mouse variable regions with human IgG1/kappa constant regions; also called clone 18F2; parent clone 18F2
In the case of B12, in assay [6], the EC50 amounted to 1.26 nM.

B13: 18F2-30 (antibody, human IgG1, kappa, V domains shown)
VH: QVQLQQPGAELVRPGASVKLSCKASGYTFTSFWLNWVKQRPGQGLEWIGNIYPSTSYTVYNQKFKDKATLTVDKSSSTAYMQLSSPTSEDSAVYYCTRTWRGNSFDYWGQGTTLTVSS
VL: DIVMTQSPSSLTVTAGEKVTMSCKSSQSLLNSGNQKNYVTWYQQKPGQPPKLLIYWGSTRSTGVPDRFTGSGSGTDFTLTISSVQAEDLAVYYCQNDYTYPFTFGSGTKLEIKR
Consider B13, for which, in assay [6], the 50% effective concentration (EC50) is 0.562 nM.

B14: 18F2-35 (antibody, human IgG1, kappa, V domains shown)
VH: QVQLQQPGAELVRPGASVKLSCKASGYTFTSFWLNWVKQRPGQGLEWIGNIYPSTSYTIYNQKFKDKATLTVDKSSSTAYMQLSSPTSEDSAVYYCTRTWRGNSFDYWGQGTTLTVSS
VL: DIVMTQSPSSLTVTAGEKVTMSCKSSQSLLNSGNQKNYLTWYQQKPGQPPKLLIYWGSTRVRGVPDRFTGSGSGTDFTLTISSVQAEDLAVYYCQNDYTYPFTFGSGTKLEIKR
In assay [6], B14 returned an EC50 of 0.509 nM.

B15: 18F2-66 (antibody, human IgG1, kappa, V domains shown)
VH: QVQLQQPGAELVRPGASVKLSCKASGYTFTSFWINWVKQRPGQGLEWIGNIYPSASYTVYNQKFKDKATLTVDKSSSTAYMQLSSPTSEDSAVYYCTRTWRGNSFDLWGQGTTLTVSS
VL: DIVMTQSPSSLTVTAGEKVTMSCKSSQSLLNSGNQKNYVTWYQQKPGQPPKLLIYWSSTRSFGVPDRFTGSGSGTDFTLTISSVQAEDLAVYYCQNDYTYPFTFGSGTKLEIKR
B15: a half-maximal response in assay [6] (EC50) required 0.524 nM.

B16: 18F2-66VH6VL3 (antibody, human IgG1, kappa)
heavy: not shown
light: DIVMTQSPSSLTVSLGEKATISCKSSQSLLNSGNQKNYVTWYQQKPGQPPKLLIYWSSTRSFGVPDRFSGSGSGTDFTLTISSLQAEDLAVYYCQNDYTYPFTFGSGTKLEIKRTVAAPSVFIFPPSDEQLKSGTASVVCLLNNFYPREAKVQWKVDNALQSGNSQESVTEQDSKDSTYSLSSTLTLSKADYEKHKVYACEVTHQGLSSPVTKSFNRGEC
notes: as for B1
Consider B16, for which the binding result in assay [5] is given as “no binding”.

B17: 18F2-66VH7VL3 (antibody, human IgG1, kappa)
heavy: not shown
light: DIVMTQSPSSLTVSLGEKATISCKSSQSLLNSGNQKNYVTWYQQKPGQPPKLLIYWSSTRSFGVPDRFSGSGSGTDFTLTISSLQAEDLAVYYCQNDYTYPFTFGSGTKLEIKRTVAAPSVFIFPPSDEQLKSGTASVVCLLNNFYPREAKVQWKVDNALQSGNSQESVTEQDSKDSTYSLSSTLTLSKADYEKHKVYACEVTHQGLSSPVTKSFNRGEC
notes: as for B1
Take B17: in assay [5], the binding result is on record as “no binding”.
